The results in this text go back to publication PMC11077049, “Unearthing a novel function of SRSF1 in binding and unfolding of RNA G-quadruplexes”.

The target of data set [1] is T1, SRSF1 RS (human, UniProt Q07955 199-248).
T1 chain: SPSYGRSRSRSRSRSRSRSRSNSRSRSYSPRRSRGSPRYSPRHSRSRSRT
Description: STD NMR; 0.5 mM RNA, 10 uM RS, D2O; no signal above noise; FP, 10 nM RNA, 37 C 30 min then 25 C 10 min; 21-mers: 25 mM KCl, 0.25 M Arg/Glu, 20 mM Tris-HCl pH 7.5, 0.1 mM EDTA, 0.1 mM TCEP, 0.02% Tween 20; 8-mers: 35 mM. The conditions noted are these: protein: recombinant; tags: none (SUMO cleaved).

The target in data set [2] is T2, SRSF1 RRM tandem (human, UniProt Q07955 1-196). Kind of data set: FP; FP, 10 nM RNA, 37 C 30 min then 25 C 10 min; 21-mers: 25 mM KCl, 0.25 M Arg/Glu, 20 mM Tris-HCl pH 7.5, 0.1 mM EDTA, 0.1 mM TCEP, 0.02% Tween 20; 8-mers: 35 mM. The conditions noted are these: protein: recombinant, tags: none (SUMO cleaved), label: 5' fluorescein.
For data set [3], the target named is T1, SRSF1 RS. Described as above. The conditions noted are these: protein: recombinant, tags: none (SUMO cleaved), label: 5' fluorescein.
Another data set concerns the target SRSF1 full-length (human, UniProt Q07955 1-248). Described as above. Particulars: protein: recombinant, tags: none (pSMT3 His-SUMO, Ulp1 cleaved), label: 5' fluorescein.
Data set [4] deals with T2, SRSF1 RRM tandem. The description is as above. Particulars: protein: recombinant; tags: none (SUMO cleaved); label: 5' fluorescein.
Data set [5] deals with T1, SRSF1 RS. Kind of data set: FP; 8-mer buffer, 35 mM K3PO4; FP, 10 nM RNA, 37 C 30 min then 25 C 10 min; 21-mers: 25 mM KCl, 0.25 M Arg/Glu, 20 mM Tris-HCl pH 7.5, 0.1 mM EDTA, 0.1 mM TCEP, 0.02% Tween 20; 8-mers: 35 mM. Particulars: protein: recombinant, tags: none (SUMO cleaved), label: 5' fluorescein.
In data set [6] the target is T1, SRSF1 RS. Description: STD NMR; 0.5 mM RNA, 10 uM RS, D2O; strongest signal; FP, 10 nM RNA, 37 C 30 min then 25 C 10 min; 21-mers: 25 mM KCl, 0.25 M Arg/Glu, 20 mM Tris-HCl pH 7.5, 0.1 mM EDTA, 0.1 mM TCEP, 0.02% Tween 20; 8-mers: 35 mM. Particulars: protein: recombinant; tags: none (SUMO cleaved).
A further data set has as its target T3, RRM1/RRM2 linker (human, UniProt Q07955 92-120).
T3 chain: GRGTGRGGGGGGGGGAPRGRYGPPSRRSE
Description: FP; FP, 10 nM RNA, 37 C 30 min then 25 C 10 min; 21-mers: 25 mM KCl, 0.25 M Arg/Glu, 20 mM Tris-HCl pH 7.5, 0.1 mM EDTA, 0.1 mM TCEP, 0.02% Tween 20; 8-mers: 35 mM. The conditions noted are these: protein: recombinant; label: 5' fluorescein; G-quadruplex (parallel).

The next data set deals with RRM tandem Y19A (human, UniProt Q07955 1-196, Y19A). The data set is described as above. The conditions noted are these: protein: recombinant; tags: SUMO; label: 5' fluorescein; G-quadruplex (parallel).
The target of a further data set is RRM tandem R173A (human, UniProt Q07955 1-196, R173A). The description is as above. Particulars: protein: recombinant; tags: SUMO; label: 5' fluorescein; G-quadruplex (parallel).
The target in the next data set is RRM tandem Q135A (human, UniProt Q07955 1-196, Q135A). The description is as above. Particulars: protein: recombinant; tags: SUMO; label: 5' fluorescein; G-quadruplex (parallel).
Another data set has as its target RRM tandem WT (Table 3) (human, UniProt Q07955 1-196). The data set is described as above. Particulars: protein: recombinant; tags: SUMO; label: 5' fluorescein; G-quadruplex (parallel).
Another data set concerns the target RRM tandem W134A (human, UniProt Q07955 1-196, W134A). Described as above. Particulars: protein: recombinant; tags: SUMO; label: 5' fluorescein; G-quadruplex (parallel).
In the next data set the target is RRM tandem F56A (human, UniProt Q07955 1-196, F56A). The description is as above. Particulars: protein: recombinant; tags: SUMO; label: 5' fluorescein; G-quadruplex (parallel).
The target of the next data set is RRM tandem F58A (human, UniProt Q07955 1-196, F58A). The description is as above. Particulars: protein: recombinant; tags: SUMO; label: 5' fluorescein; G-quadruplex (parallel).
Another data set addresses RS mutant KS (human, UniProt Q07955 198-248, R198K;R204K;R206K;R208K;R210K;R212K;R214K;R216K;R218K;R222K;R224K;R229K;R230K;R2 …). The data set is described as above. The conditions noted are these: protein: recombinant; tags: none (SUMO cleaved); label: 5' fluorescein; G-quadruplex (parallel).
A further data set deals with RS mutant RA (human, UniProt Q07955 198-248, S199A;S201A;S205A;S207A;S209A;S211A;S213A;S215A;S217A;S219A;S221A;S223A;S225A;S2 …). Description: FP; similar affinity to RS; FP, 10 nM RNA, 37 C 30 min then 25 C 10 min; 21-mers: 25 mM KCl, 0.25 M Arg/Glu, 20 mM Tris-HCl pH 7.5, 0.1 mM EDTA, 0.1 mM TCEP, 0.02% Tween 20; 8-mers: 35 mM. The conditions noted are these: protein: recombinant; tags: none (SUMO cleaved); label: 5' fluorescein; G-quadruplex (parallel).

By Kd is commonly meant a measure of binding affinity in units of concentration.

T2 sequence (Q07955 1-196): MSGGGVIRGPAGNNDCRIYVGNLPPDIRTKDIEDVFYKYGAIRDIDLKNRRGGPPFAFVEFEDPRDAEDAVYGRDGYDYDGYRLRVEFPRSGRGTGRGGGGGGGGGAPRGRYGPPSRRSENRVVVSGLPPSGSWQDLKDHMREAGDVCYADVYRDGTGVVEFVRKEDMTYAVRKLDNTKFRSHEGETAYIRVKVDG
Sequence of RRM tandem Y19A (Q07955 1-196 Y19A): as the sequence (Q07955 1-196) above, with Y19A counted along it
Sequence of RRM tandem WT (Table 3) (Q07955 1-196): as the sequence (Q07955 1-196) above
Sequence of RRM tandem W134A (Q07955 1-196 W134A): as the sequence (Q07955 1-196) above, with W134A counted along it
Sequence of RRM tandem R173A (Q07955 1-196 R173A): as the sequence (Q07955 1-196) above, with R173A counted along it
Sequence of RRM tandem F56A (Q07955 1-196 F56A): as the sequence (Q07955 1-196) above, with F56A counted along it
Sequence of RRM tandem F58A (Q07955 1-196 F58A): as the sequence (Q07955 1-196) above, with F58A counted along it
Sequence of RRM tandem Q135A (Q07955 1-196 Q135A): as the sequence (Q07955 1-196) above, with Q135A counted along it

B1: AAA 3-mer (ssRNA)
RNA: AAA
Turning to B1, the binding result with SRSF1 RS [1] is “no binding”.

B2: UUU 3-mer (ssRNA)
RNA: UUU
Consider B2, for which, in the data set with SRSF1 RS [1], the binding result was “no binding”.

B3: TERRA GQ (structured_RNA)
RNA: UGGGUUAGGGUUAGGGUUAGGG
B3: the Kd with SRSF1 RRM tandem [2] (G-quadruplex) came to 3200 ± 290 nM; with SRSF1 RS [3] (G-quadruplex), 26 ± 2 nM; in the data set with SRSF1 full-length (G-quadruplex) it was 4.6 ± 0.5 nM.

B4: GGG motif RNA (ssRNA)
RNA: UCAGAGGG
Take B4: in the data set with SRSF1 RRM tandem [4], the binding signal is ~3 fold weaker than GGA motif.

B5: 4GA (ssRNA)
RNA: GAGAGAGA
Regarding B5, in the data set with SRSF1 RS [5], the Kd is 83 ± 3 nM.

B6: 4CU (ssRNA)
RNA: CUCUCUCU
In the case of B6, the dissociation constant Kd in the data set with SRSF1 RS [5] was determined as 470 ± 12 nM.

B7: MMP16 GQ (structured_RNA)
RNA: UUGGGAGGGAGGGAGAGGGUU
Regarding B7, the Kd is 3500 ± 490 nM with SRSF1 RRM tandem [2] (G-quadruplex), 150 ± 10 nM with SRSF1 RS [3] (G-quadruplex) and 5.9 ± 0.6 nM with SRSF1 full-length (G-quadruplex).

B8: 21-mer CU (ssRNA)
RNA: CUCUCUCUCUCUCUCUCUCUC
B8: the Kd with SRSF1 RS [3] was found to be 1400 ± 100 nM.

B9: 8A (ssRNA)
RNA: AAAAAAAA
Consider B9, for which the dissociation constant Kd with SRSF1 RS [5] stood at 610 ± 15 nM.

B10: GGG 3-mer (ssRNA)
RNA: GGG
As for B10, the binding result with SRSF1 RS [6] was “binds”.

B11: 8G (structured_RNA)
RNA: GGGGGGGG
For B11, the Kd in the data set with SRSF1 RS [5] (intermolecular G-quadruplex) stood at 3 ± 0.8 nM.

B12: 21-mer GA (ssRNA)
RNA: GAGAGAGAGAGAGAGAGAGAG
Regarding B12, the Kd with SRSF1 RS [3] turned out to be 210 ± 16 nM.

B13: ARPC2 GQ (structured_RNA)
RNA: GGGGGCUGGGCGGGGACCGGG
As to B13, the binding result with RRM1/RRM2 linker is reported as “no binding”; in the data set with RS mutant KS it was “no binding”; in the data set with RS mutant RA, “binds”. For the same molecule, the equilibrium dissociation constant (Kd) with RRM tandem Y19A was 1800 ± 160 nM; with RRM tandem R173A, 140 ± 12 nM; with RRM tandem Q135A, 350 ± 20 nM; with SRSF1 RRM tandem [2] (G-quadruplex (parallel)) it was 220 ± 19 nM; with SRSF1 RS [3] (G-quadruplex (parallel)), 250 ± 22 nM; with RRM tandem WT (Table 3) it was 130 ± 11 nM. The Kd with RRM tandem W134A came out at 1200 ± 90 nM; in the data set with RRM tandem F56A, 7000 ± 1500 nM; with RRM tandem F58A, 1500 ± 80 nM; with SRSF1 full-length (G-quadruplex (parallel)) it was 3.6 ± 0.7 nM.

B14: 8U (ssRNA)
RNA: UUUUUUUU
With B14, the dissociation constant Kd with SRSF1 RS [5] was 550 ± 21 nM.
